Experimental data from paper PMC11912937 (The Journal of Cell Biology, 2025).

Tests used:
Conditions in all cases: both partners purified
[1] = target: T1, ^GSTCENP-OPQUR (CENP-OPQUR with CENP-U fused to an N-terminal GST) (human, UniProt Q9BU64 1-300; Q6IPU0 1-288; Q7L2Z9 1-268; Q71F23 1-418; Q13352 1-177); experiment: pull-down; glutathione-agarose, CENP-OPQUR with GST on CENP-U as bait, FACT constructs as preys; 3 µM each; 20 mM Hepes pH 6.8, 300 mM NaCl, 2.5% glycerol, 1 mM TCEP, 0.01% Tween; 4°C
T1 construct: CENP-O; CENP-P; CENP-Q; CENP-U; CENP-R; also called GST-tagged CENP-OPQUR; not shown: GST, N-terminal, kept; copies: + + + +

[2] = target: T2, CCAN, 16-subunit constitutive centromere-associated network reconstituted with CENP-C^2–545 (human, UniProt Q03188 2-545; Q9H3R5 1-247; Q92674 1-756; Q9BS16 1-269; Q9NSP4 1-180; Q8N0S6 …); experiment: pull-down; amylose resin, MBP-tagged FACT (untreated, dephosphorylated, kinase-treated or truncated) as bait, CCAN or CCAN subcomplexes as preys; 3 µM each; 20 mM Hepes pH 6.8, 300 mM NaCl, 2.5% glycerol, 1 mM TCEP, 0.01% Tween; 4°C; SDS-PAGE, Coomassie
T2 construct: CENP-H; CENP-I; CENP-K; CENP-M; CENP-L; CENP-N; CENP-O; CENP-P; CENP-Q; CENP-U; CENP-R; CENP-T; CENP-W; CENP-S; CENP-X; source: recombinant subcomplexes expressed and purified as previously reported, mixed to reconstitute CCAN; copies: + + + + + + + + + + + + + + +

[3] = target: T3, FACT complex (SPT16/SSRP1), full length, untreated (human, UniProt Q9Y5B9 1-1047; Q08945 1-709, phosphorylated as purified from insect cells; residues not printed | phosphorylated as purified from insect cells; residues not given); experiment: pull-down; amylose resin, MBP-CENP-C fusion proteins (fragments or full-length ^MBPCENP-C^EGFP) as baits, FACT or FACT constructs as preys; 3 µM each; 20 mM Hepes pH 6.8, 300 mM NaCl, 2.5% glycerol, 1 mM TCEP, 0.01% Tween; 4°C
T3 construct: SPT16, FACT subunit; SSRP1, FACT subunit; His tags are followed by a TEV site; cleavage is not described; also called FAcilitates Chromatin Transcription complex; full-length FACT; source: Tnao38 insect cells (baculovirus), purified (HisTrap, HiTrap Q, SEC)
T3 sequence (Q9Y5B9 whole entry, the tested form may be a part, one chain of several): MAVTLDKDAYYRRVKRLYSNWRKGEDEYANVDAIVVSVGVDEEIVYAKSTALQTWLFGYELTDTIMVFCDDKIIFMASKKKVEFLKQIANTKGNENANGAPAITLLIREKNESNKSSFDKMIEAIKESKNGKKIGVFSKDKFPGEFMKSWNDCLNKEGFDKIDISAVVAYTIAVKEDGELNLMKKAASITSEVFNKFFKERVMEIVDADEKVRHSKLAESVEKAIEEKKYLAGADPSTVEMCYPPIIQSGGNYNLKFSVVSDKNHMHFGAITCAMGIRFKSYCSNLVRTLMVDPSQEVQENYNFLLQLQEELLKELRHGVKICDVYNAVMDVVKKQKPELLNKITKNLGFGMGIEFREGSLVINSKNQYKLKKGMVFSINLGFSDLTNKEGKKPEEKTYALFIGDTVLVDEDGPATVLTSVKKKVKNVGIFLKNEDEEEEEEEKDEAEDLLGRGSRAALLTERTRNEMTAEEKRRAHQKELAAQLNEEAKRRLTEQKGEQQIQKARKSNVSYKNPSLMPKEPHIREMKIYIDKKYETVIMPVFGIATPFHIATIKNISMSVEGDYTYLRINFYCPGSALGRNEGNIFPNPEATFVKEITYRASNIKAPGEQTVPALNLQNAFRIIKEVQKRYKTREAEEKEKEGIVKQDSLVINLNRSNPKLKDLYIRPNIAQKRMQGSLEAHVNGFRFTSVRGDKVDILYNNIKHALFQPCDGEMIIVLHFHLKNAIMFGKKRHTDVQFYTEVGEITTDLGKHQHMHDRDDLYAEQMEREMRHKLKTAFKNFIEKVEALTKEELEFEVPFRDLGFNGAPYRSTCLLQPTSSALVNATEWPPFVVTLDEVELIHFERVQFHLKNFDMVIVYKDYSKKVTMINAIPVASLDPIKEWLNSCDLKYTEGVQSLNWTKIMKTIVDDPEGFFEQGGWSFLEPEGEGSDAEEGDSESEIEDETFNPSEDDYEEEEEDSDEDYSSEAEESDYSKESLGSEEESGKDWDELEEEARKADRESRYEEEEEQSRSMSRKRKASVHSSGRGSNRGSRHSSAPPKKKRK

[4] = target: T4, ^MBPCENP-C^EGFP (a full-length CENP-C construct) (human, UniProt Q03188 1-943); experiment: as above
T4 construct: CENP-C; also called ^His-MBPCENP-C^EGFP; source: Tnao38 insect cells (baculovirus), purified (TALON, heparin, SEC); not shown: MBP, N-terminal, kept; EGFP, C-terminal, kept
T4 sequence (Q03188 whole entry): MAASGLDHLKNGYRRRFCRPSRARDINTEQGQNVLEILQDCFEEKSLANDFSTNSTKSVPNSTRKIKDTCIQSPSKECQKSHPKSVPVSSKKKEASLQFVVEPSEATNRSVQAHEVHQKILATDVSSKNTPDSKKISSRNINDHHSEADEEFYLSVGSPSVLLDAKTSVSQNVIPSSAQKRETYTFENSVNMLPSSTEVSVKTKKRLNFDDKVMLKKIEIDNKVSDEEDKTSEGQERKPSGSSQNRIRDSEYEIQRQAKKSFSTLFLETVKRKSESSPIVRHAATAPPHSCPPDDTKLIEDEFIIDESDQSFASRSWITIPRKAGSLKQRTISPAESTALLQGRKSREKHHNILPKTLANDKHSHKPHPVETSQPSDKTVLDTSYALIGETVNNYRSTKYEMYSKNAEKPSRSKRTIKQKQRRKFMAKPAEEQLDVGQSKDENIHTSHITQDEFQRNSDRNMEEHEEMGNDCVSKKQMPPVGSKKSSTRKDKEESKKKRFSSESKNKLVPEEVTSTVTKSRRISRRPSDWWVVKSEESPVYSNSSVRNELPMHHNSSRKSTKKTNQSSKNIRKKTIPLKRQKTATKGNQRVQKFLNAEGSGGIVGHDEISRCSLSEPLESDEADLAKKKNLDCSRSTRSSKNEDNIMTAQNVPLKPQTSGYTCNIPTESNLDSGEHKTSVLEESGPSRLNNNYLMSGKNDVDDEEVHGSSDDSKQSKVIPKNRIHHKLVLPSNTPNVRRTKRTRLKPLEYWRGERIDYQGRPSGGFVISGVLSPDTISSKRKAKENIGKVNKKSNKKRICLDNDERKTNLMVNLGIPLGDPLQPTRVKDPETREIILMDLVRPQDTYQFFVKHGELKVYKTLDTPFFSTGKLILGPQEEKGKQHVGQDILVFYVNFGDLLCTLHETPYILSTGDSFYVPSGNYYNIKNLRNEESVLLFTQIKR

B1: FACT^trunc (SPT16^508–988/SSRP1^1–514) (complex, human)
chain 1: SNVSYKNPSLMPKEPHIREMKIYIDKKYETVIMPVFGIATPFHIATIKNISMSVEGDYTYLRINFYCPGSALGRNEGNIFPNPEATFVKEITYRASNIKAPGEQTVPALNLQNAFRIIKEVQKRYKTREAEEKEKEGIVKQDSLVINLNRSNPKLKDLYIRPNIAQKRMQGSLEAHVNGFRFTSVRGDKVDILYNNIKHALFQPCDGEMIIVLHFHLKNAIMFGKKRHTDVQFYTEVGEITTDLGKHQHMHDRDDLYAEQMEREMRHKLKTAFKNFIEKVEALTKEELEFEVPFRDLGFNGAPYRSTCLLQPTSSALVNATEWPPFVVTLDEVELIHFERVQFHLKNFDMVIVYKDYSKKVTMINAIPVASLDPIKEWLNSCDLKYTEGVQSLNWTKIMKTIVDDPEGFFEQGGWSFLEPEGEGSDAEEGDSESEIEDETFNPSEDDYEEEEEDSDEDYSSEAEESDYSKESLGSEEESGK
chain 2: MAETLEFNDVYQEVKGSMNDGRLRLSRQGIIFKNSKTGKVDNIQAGELTEGIWRRVALGHGLKLLTKNGHVYKYDGFRESEFEKLSDFFKTHYRLELMEKDLCVKGWNWGTVKFGGQLLSFDIGDQPVFEIPLSNVSQCTTGKNEVTLEFHQNDDAEVSLMEVRFYVPPTQEDGVDPVEAFAQNVLSKADVIQATGDAICIFRELQCLTPRGRYDIRIYPTFLHLHGKTFDYKIPYTTVLRLFLLPHKDQRQMFFVISLDPPIKQGQTRYHFLILLFSKDEDISLTLNMNEEEVEKRFEGRLTKNMSGSLYEMVSRVMKALVNRKITVPGNFQGHSGAQCITCSYKASSGLLYPLERGFIYVHKPPVHIRFDEISFVNFARGTTTTRSFDFEIETKQGTQYTFSSIEREEYGKLFDFVNAKKLNIKNRGLKEGMNPSYDEYADSDEDQHDAYLERMKEEGKIREENANDSSDDSGEETDESFNPGEEEEDVAEEFDSNASASSSSNEGDSDRDE
notes: SPT16, residues 508-988; SSRP1, residues 1-514; also called construct 2; source: Tnao38 insect cells (baculovirus), purified (HisTrap, HiTrap Q, SEC)
B1: binds [1].

B2: ^MBPFACT^trunc (MBP-TEV-SPT16^508–988 + His-TEV-SSRP1^1–514) (complex, human)
chain 1: B1 chain 1
chain 2: B1 chain 2
notes: SPT16, residues 508-988; SSRP1, residues 1-514; also called construct 2 with an N-terminal MBP fusion on SPT16; source: Tnao38 insect cells (baculovirus), purified (HisTrap, HiTrap Q, SEC); not shown: MBP, N-terminal, kept
B2: binds [2].

B3: ^MBPCENP-C^721–759-His (domain or fragment, human, UniProt Q03188 721-759, looked up)
chain: KNRIHHKLVLPSNTPNVRRTKRTRLKPLEYWRGERIDYQ
notes: CENP-C, residues 721-759; not shown: MBP, N-terminal, kept
B3: binds [3].

B4: SPT16^Mid-AID (SPT16^644–988) (domain or fragment, human, UniProt Q9Y5B9 644-988, looked up)
chain: GIVKQDSLVINLNRSNPKLKDLYIRPNIAQKRMQGSLEAHVNGFRFTSVRGDKVDILYNNIKHALFQPCDGEMIIVLHFHLKNAIMFGKKRHTDVQFYTEVGEITTDLGKHQHMHDRDDLYAEQMEREMRHKLKTAFKNFIEKVEALTKEELEFEVPFRDLGFNGAPYRSTCLLQPTSSALVNATEWPPFVVTLDEVELIHFERVQFHLKNFDMVIVYKDYSKKVTMINAIPVASLDPIKEWLNSCDLKYTEGVQSLNWTKIMKTIVDDPEGFFEQGGWSFLEPEGEGSDAEEGDSESEIEDETFNPSEDDYEEEEEDSDEDYSSEAEESDYSKESLGSEEESGK
notes: SPT16, Mid domain and AID segment, residues 644-988; also called construct 3; source: Tnao38 insect cells (baculovirus), purified (HisTrap, HiTrap Q, SEC)
B4: binds [4].

B5: ^MBPCENP-C^546–600-His (domain or fragment, human, UniProt Q03188 546-600, looked up)
chain: VRNELPMHHNSSRKSTKKTNQSSKNIRKKTIPLKRQKTATKGNQRVQKFLNAEGS
notes: CENP-C, residues 546-600; not shown: MBP, N-terminal, kept
B5: binds [3].
